Laboratory results from publication PMC6352652 (2018).

Key:
[1] = target: T1, FBG domain of rat tenascin-C (rat); test: SPR; 37°C
T1 chain: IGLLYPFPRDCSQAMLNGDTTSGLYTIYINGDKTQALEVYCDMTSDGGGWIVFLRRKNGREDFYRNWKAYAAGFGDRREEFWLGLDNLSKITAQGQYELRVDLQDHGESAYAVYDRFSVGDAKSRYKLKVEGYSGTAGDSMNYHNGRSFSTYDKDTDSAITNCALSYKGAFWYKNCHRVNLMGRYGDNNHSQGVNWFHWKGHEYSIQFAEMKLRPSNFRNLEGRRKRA

[2] = target: T2, fibrinogen-like globe (FBG) domain of human tenascin-C (human, UniProt P24821 1975-2201); test: SPR; 37°C
T2 chain: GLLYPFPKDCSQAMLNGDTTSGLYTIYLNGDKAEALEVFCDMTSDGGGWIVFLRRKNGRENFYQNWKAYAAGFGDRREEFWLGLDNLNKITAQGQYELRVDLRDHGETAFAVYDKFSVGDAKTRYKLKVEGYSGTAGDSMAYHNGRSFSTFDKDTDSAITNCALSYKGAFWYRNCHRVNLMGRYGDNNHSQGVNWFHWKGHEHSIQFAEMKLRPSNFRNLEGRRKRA

B1: monoclonal antibody C3 (antibody, V domains shown)
VH: QVQLVESGGGLVQPGRSLRLSCAASGFTFDDYAMHWVRQAPGKGLEWVSGISGSGGSTYYADSVKGRFTISRDNAKNSLYLQMNSLRAEDTALYYCAKSYQSDEDAFDIWGQGTMVTVSS
VL: DIQMTQSPASLPTPVGDRVTITCRASQYIQGFLNWYQQKPGKAPKLLIYDASNLETGVPSRFSGSGSGTDFTLTISSLQPEDFATYYCQQSYSTPQTFGQGTKVDIK
- koff [1]: 0.00473 s⁻¹
- koff [2]: 0.00083 s⁻¹
